In US20050119186A1, “Potent peptide inhibitors and methods of use” (priority 2003, published 2005):
Like-named read-outs stand apart in the source and are kept apart here. Positions of bridges follow the written chain, without caps; N, C: chain ends. Residues, ends and D or L forms follow the SMILES beside them. No end group written: not given here.

B1: Table 1 peptide 7, CLLRMKSAC (SEQ ID NO:27) (peptide)
peptide: CLLRMKSAC
modifications: disulfide 1-9
B2: Table 1 peptide 6, CLLKMRSAC (SEQ ID NO:26) (peptide)
peptide: CLLKMRSAC
modifications: disulfide 1-9
B3: Table 1 peptide 11, CALRMRSIC (SEQ ID NO:31) (peptide)
peptide: CALRMRSIC
modifications: disulfide 1-9
B4: Table 1 peptide 3, CVLRMRSAC (SEQ ID NO:23) (peptide)
peptide: CVLRMRSAC
modifications: disulfide 1-9
B5: Table 1 peptide 12, CLARMRSIC (SEQ ID NO:32) (peptide)
peptide: CLARMRSIC
modifications: disulfide 1-9
B6: Table 1 peptide 16, CILKMKSAC (SEQ ID NO:36) (peptide)
peptide: CILKMKSAC
modifications: disulfide 1-9
B7: Table 1 peptide 8, CLLRMRSLC (SEQ ID NO:28) (peptide)
peptide: CLLRMRSLC
modifications: disulfide 1-9
B8: Table 1 peptide 9, CLLRMRSVC (SEQ ID NO:29) (peptide)
peptide: CLLRMRSVC
modifications: disulfide 1-9
B9: Table 1 peptide 5, CLVRMRSAC (SEQ ID NO:25) (peptide)
peptide: CLVRMRSAC
modifications: disulfide 1-9
B10: Table 7 peptide 2, CASKMRSAC (SEQ ID NO:2) (peptide)
peptide: CASKMRSAC
modifications: disulfide 1-9
B11: Table 1 peptide 10, CLLRMRSIC (SEQ ID NO:30) (peptide)
peptide: CLLRMRSIC
modifications: disulfide 1-9
B12: Table 1 peptide 15, CLLRMRAIC (SEQ ID NO:35) (peptide)
peptide: CLLRMRAIC
modifications: disulfide 1-9
B13: Table 1 peptide 4, CLIRMRSAC (SEQ ID NO:24) (peptide)
peptide: CLIRMRSAC
modifications: disulfide 1-9
B14: Table 1 peptide 1, CLLRMRSAC (SEQ ID NO:21) (peptide)
peptide: CLLRMRSAC
modifications: disulfide 1-9
B15: Table 7 peptide 10, CILKMRSVC (SEQ ID NO:10) (peptide)
peptide: CILKMRSVC
modifications: disulfide 1-9
B16: Table 1 peptide 14, CLLRMASIC (SEQ ID NO:34) (peptide)
peptide: CLLRMASIC
modifications: disulfide 1-9

Assays:
ICAM-1/LFA-1 = target: T1, ICAM-1/LFA-1 (Homo sapiens, UniProt P05362); assay: cellular aggregation blocking assay (LFA-1/ICAM-1 dependent cell aggregation); assay type: cell-based
T1 construct: endogenous in cells
Description: The inhibitory compound tested was a cyclic peptide containing nine amino acids that bind to ICAM-1, thereby inhibiting LFA-1/ICAM-1 binding. Using alanine replacement and homologous amino acid substitutions, we identified residues strategic to the antagonist activity were identified. A small set of such derived peptides was used as a training set for the inverse-QSAR. The activity or potency of the peptides is associated with an IC50 value, which measures the concentration that leads to half-maximal inhibition of receptor to ligand. Table 1, below, lists the amino acid sequence of sixteen such derived peptides with their IC50 values (given in μM), determined using a cellular aggregation blocking assay (J. Shannon, D. C. Brown, M. Silva, R. S. Larson, A cyclic peptide inhibits LFA-1/ICAM-1 mediated cell aggregation, J. Pept. Res. (2001) 1-14, L. Sillerud, E. Burks, D. C. Brown, R. S. Larson, NMR-derived solution model of potent ICAM-1 inhibitory peptide, J. Pept. 62 (2003) 97-116).
In brief, the aggregation of a cell line dependent on LFA-1 binding to ICAM-1 was used to measure the inhibitory capacity of each peptide. Inhibitory peptides and cells were seeded in flat-bottomed microtiter plates and allowed to aggregate. The number of aggregates and total number of free (single) cells were counted using inverted phase microscopy. The percent aggregation, P, was determined as P=100(1−F/I) (1) where F is the final number of free cells and I is the initial number of free cells. This percent aggregation was then used to calculate the percent inhibition, Pi as follows Pi=100(1−Pip/Pc) (2) where Pip is the percent aggregation with inhibitory peptide and Pc is the percent aggregation in the control experiment. The IC50 values were calculated from a line fit to the percent inhibition data as a function of inhibitory peptide concentration over the range from 10 μM to 1 mM. Each condition was performed in duplicate while each experiment was performed a minimum of three times.

[1] = target: T2, intercellular adhesion molecule-1 (ICAM-1) (human, UniProt P05362 28-532); assay: cell-based or functional assay
[2] = target: T2, intercellular adhesion molecule-1 …; assay: cell-based or functional assay; remark: listed apart in the source
[3] = Table 1, class by experimental IC50, read-out: Inhibitor strength

T2 sequence (P05362 28-532): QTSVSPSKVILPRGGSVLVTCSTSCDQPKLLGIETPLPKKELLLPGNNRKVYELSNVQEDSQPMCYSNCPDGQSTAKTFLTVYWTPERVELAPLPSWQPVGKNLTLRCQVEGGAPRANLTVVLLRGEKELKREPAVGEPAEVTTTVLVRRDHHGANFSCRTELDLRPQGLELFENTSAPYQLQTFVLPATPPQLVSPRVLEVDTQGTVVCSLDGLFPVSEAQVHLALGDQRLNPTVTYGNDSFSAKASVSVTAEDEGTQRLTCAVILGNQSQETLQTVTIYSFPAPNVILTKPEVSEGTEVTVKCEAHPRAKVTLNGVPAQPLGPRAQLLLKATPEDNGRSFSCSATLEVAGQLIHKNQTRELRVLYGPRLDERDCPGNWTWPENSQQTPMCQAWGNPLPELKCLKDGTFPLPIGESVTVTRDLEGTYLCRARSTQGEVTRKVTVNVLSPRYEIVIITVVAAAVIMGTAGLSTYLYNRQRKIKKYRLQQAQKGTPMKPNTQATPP
T1 sequence (P05362 28-532): as above

Row | Molecule | Experimental IC50 (µM), cellular aggregation blocking assay [1] [µM] | other results
1 | CC[C@H](C)[C@@H]1NC(=O)[C@H](CC(C)C)NC(=O)[C@@H](N)CSSC[C@@H](C(=O)O)NC(=O)[C@H](C)NC(=O)[C@H](CO)NC(=O)[C@H](CCCNC(=N)N)NC(=O)[C@H](CCSC)NC(=O)[C@H](CCCNC(=N)N)NC1=O [Peptide 4] (H-CLIRMRSAC-OH; disulfide 1-9) | – | IC50 (ICAM-1/LFA-1; [3]): 500 to 1000 µM; IC50 (ICAM-1/LFA-1; Table 1, peptide 10 μM to 1 mM, inhibition of cell aggregation, read-out: Experimental IC50): 720 µM
2 | CC[C@H](C)[C@@H]1NC(=O)[C@@H](N)CSSC[C@@H](C(=O)O)NC(=O)[C@H](C)NC(=O)[C@H](CO)NC(=O)[C@H](CCCCN)NC(=O)[C@H](CCSC)NC(=O)[C@H](CCCCN)NC(=O)[C@H](CC(C)C)NC1=O [Peptide 16] (H-CILKMKSAC-OH; disulfide 1-9) | – | IC50 (ICAM-1/LFA-1; [3]): ≤ 500 µM; IC50 (ICAM-1/LFA-1; strongest inhibitor in the training set, read-out: IC50 value): 40 µM
3 | B1 | 90 | –
4 | B2 | 105 | –
5 | B3 | > 1000 | –
6 | B4 | > 1000 | –
7 | B5 | > 1000 | –
8 | B6 | 40 | –
9 | B7 | > 1000 | –
10 | B8 | 700 | –
11 | B9 | > 1000 | –
12 | B10 | – | Actual IC50 value (µm), cellular assays [2]: 23 µM
13 | B11 | 580 | –
14 | B12 | 710 | –
15 | B13 | 720 | –
16 | B14 | 480 | –
17 | B15 | – | Actual IC50 value (µm), cellular assays [2]: 28 µM
18 | B16 | > 1000 | –
